Reference: article PMC3206353 (The Journal of Cell Biology, 2011)

Legend:
[1] = biological target: Mg-ATP-actin monomer (chicken breast muscle actin) (chicken, UniProt P68139 1-377); assay: inhibition of nucleotide exchange
[2] = biological target: pyrene-labeled ADP-actin filaments (chicken breast muscle actin) (chicken, UniProt P68139 1-377, pyrene (pyrene iodoacetamide) on cysteine-374); assay: other fluorescence titration

Kd [1]: 170 nM
Ka of the cooperative model (Kd = 1/(ω*Ka)) [2]: 0.08 µM⁻¹
Kd [2]: 890 nM
B1: cofilin-M3 (natural protein)
chain: MSFSGVKVSPECLEAFQELKLGKSLRYVVFKMNDTKTEIVVEKKSTDKDFDTFLGDLPEKDCRYAIYDFEFNLGEGVRNKIIFISWSPDVAPIKSKMVYSSSKDTLRRAFTGIGTDIQATDFSEVAYETVLAAVTRK
